{
  "source": "patent US20240043551A1",
  "about": "(ADLAI NORTYE BIOPHARMA, published 2024)",
  "binders": {"B1": {"name": "TN36-10 (antibody, V domains shown)", "VH": "EVQLVESGGGLIQPGGSLRLSCAASGFSLSSSAVSWVRQAPGKGLEWIGAIGSGGTSYYSNWAKSRFTISRDTSKNTVYLQMNSLRAEDTAVYFCARDPNSSDYPYGAYGMGLWGPGTLVTVSS", "VL": "DIQMTQSPSSLSASVGDRVTITCQVSQSISSYLSWYQQKPGKAPKLLIYYASTLASGVPSRFSGSGSGTDFTLTISSLQPEDFATYYCQQGYITSNVGNAFGGGTKVEIK", "notes": "Humanized; also called AL4/AL8"}, "B2": {"name": "TN36-16 (antibody, human IgG1, V domains shown)", "VH": "B1 VH with I12V, T73N, V78L, F94Y, P116Q", "VL": "B1 VL with S10F", "notes": "Humanized; also called AL5/AL10"}, "B3": {"name": "TN36-14 (antibody, human IgG1, V domains shown)", "VH": "B1 VH with I12V, T73N, V78L, F94Y, P116Q", "VL": "B1 VL", "notes": "Humanized; also called AL5/AL8"}, "B4": {"name": "TN36-17 (antibody, human IgG1, V domains shown)", "VH": "B1 VH with I12V, T73N, V78L, F94Y, P116Q", "VL": "B1 VL with M4L, S10F, D70E", "notes": "Humanized; also called AL5/AL11"}, "B5": {"name": "TN36-12 (antibody, human IgG1, V domains shown)", "VH": "B1 VH", "VL": "B1 VL with S10F", "notes": "Humanized; also called AL4/AL10"}, "B6": {"name": "TN36-21 (antibody, human IgG1, V domains shown)", "VH": "B1 VH with I12V, T73N, V78L, F94Y", "VL": "B1 VL with M4L, S10F, D70E", "notes": "Humanized; also called AL6/AL11"}, "B7": {"name": "TN36-19 (antibody, human IgG1, V domains shown)", "VH": "B1 VH with I12V, T73N, V78L, F94Y", "VL": "B1 VL with A43P", "notes": "Humanized; also called AL6/AL9"}, "B8": {"name": "TN36-11 (antibody, human IgG1, V domains shown)", "VH": "B1 VH", "VL": "B1 VL with A43P", "notes": "Humanized; also called AL4/AL9"}, "B9": {"name": "TN36-18 (antibody, human IgG1, V domains shown)", "VH": "B1 VH with I12V, T73N, V78L, F94Y", "VL": "B1 VL", "notes": "Humanized; also called AL6/AL8"}, "B10": {"name": "TN36-13 (antibody, human IgG1, V domains shown)", "VH": "B1 VH", "VL": "B1 VL with M4L, S10F, D70E", "notes": "Humanized; also called AL4/AL11"}, "B11": {"name": "TN36-20 (antibody, human IgG1, V domains shown)", "VH": "B1 VH with I12V, T73N, V78L, F94Y", "VL": "B1 VL with S10F", "notes": "Humanized; also called AL6/AL10"}, "B12": {"name": "TN36-15 (antibody, human IgG1, V domains shown)", "VH": "B1 VH with I12V, T73N, V78L, F94Y, P116Q", "VL": "B1 VL with A43P", "notes": "Humanized; also called AL5/AL9"}},
  "note": "Residue numbers refer to the chain shown, from its start.",
  "data": [
    {"biological_target": "T1, Human TNFR1 (Acro Biosystem, TN1-H5222) (human, UniProt P19438 30-211)", "T1 construct": "Bought protein; also called TNF receptor type 1; CD120a", "T1 sequence (looked up)": "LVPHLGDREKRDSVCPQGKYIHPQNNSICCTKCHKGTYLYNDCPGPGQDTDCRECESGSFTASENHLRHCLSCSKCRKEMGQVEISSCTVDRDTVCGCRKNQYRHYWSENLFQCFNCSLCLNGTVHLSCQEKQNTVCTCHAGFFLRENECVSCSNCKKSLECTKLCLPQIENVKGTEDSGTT", "assay": "ELISA, receptor coated at 1 µg/mL", "procedure": "(§1) Human TNFR2 (Acro Biosystem, TN2-H5227), Human TNFR1 (Acro Biosystem, TN1-H5222), Cynomolgus TNFR2 (Sino Biological, 90102-CO8H) or mouse TNFR2 (R&D systems, 426-R2-050/CF) was coated on high binding polystyrene flat bottom micro-titer plates (Thermo Scientific, 3455) in PBS (PH=7.4, Gibco,10010-031) at 1 μg/mL and 100 μL per well. Plates were incubated at 4° C. overnight.\n(§2) Plates were warmed up to room temperature the next day and washed with 200 μL PBS containing 0.1% Tween 20 (Life technologies, 003005) per well for 3 times. Plates were blocked with 200 μL PBS buffer containing 1% BSA (Fisher Scientific, BP1600-100) per well for 1 hour at 37° C. Antibodies was titrated from 5 μg/mL in a 5-fold dilution series, distributed 100 μL per well and incubated at 37° C. for 1 hour. Human IgG1 isotype control (BioxCell, BE0297) was used as negative control. Plates were washed with 200 μL PBS containing 0.1% Tween 20 (Life technologies, 003005) per well for 3 times. Goat anti-Human IgG Fc Secondary Antibody-HRP conjugate (Invitrogen, A18817) were distributed at 0.5μg/mL and 100 μL per well to detect bound antibodies. After 1-hour incubation of secondary antibody at 37° C., plates were washed with 200 μL PBS containing 0.1% Tween 20 (Life technologies, 003005) per well for 3 times. Plates were developed using TMB Substrate Solution (eBioscience, 00-4201-56) and stopped with ELISA stop solution (Invitrogen, SSO4). The level of bound antibodies was determined by reading absorbance at 450 nm. Mouse anti-human TNFR1 antibody (ThermoFisher Scientific, MA1-81005) and goat anti mouse IgG secondary antibody-HRP conjugate (Invitrogen, 62-5520) were used as positive control for human TNFR1 detection. Armenian Hamster anti-mouse TNFR2 antibody (InVivoMab, BE0247) and HRP-Goat anti-Armenian Hamster IgG (H+L) Secondary Antibody (Invitrogen, PA1-32045) were used as positive control for mouse TNFR2 detection.", "values": [
      {"binder": "B1", "binding result": "no binding (tested: titrated from 5 µg/mL)"},
      {"binder": "B2", "binding result": "no binding (tested: titrated from 5 µg/mL)"},
      {"binder": "B3", "binding result": "no binding (tested: titrated from 5 µg/mL)"},
      {"binder": "B4", "binding result": "no binding (tested: titrated from 5 µg/mL)"},
      {"binder": "B5", "binding result": "no binding (tested: titrated from 5 µg/mL)"},
      {"binder": "B6", "binding result": "no binding (tested: titrated from 5 µg/mL)"},
      {"binder": "B7", "binding result": "no binding (tested: titrated from 5 µg/mL)"},
      {"binder": "B8", "binding result": "no binding (tested: titrated from 5 µg/mL)"},
      {"binder": "B9", "binding result": "no binding (tested: titrated from 5 µg/mL)"},
      {"binder": "B10", "binding result": "no binding (tested: titrated from 5 µg/mL)"},
      {"binder": "B11", "binding result": "no binding (tested: titrated from 5 µg/mL)"},
      {"binder": "B12", "binding result": "no binding (tested: titrated from 5 µg/mL)"}
    ]},
    {"biological_target": "T2, mouse TNFR2 (R&D systems, 426-R2-050/CF) (mouse, UniProt P25119 23-258)", "T2 construct": "Bought protein", "T2 sequence (looked up)": "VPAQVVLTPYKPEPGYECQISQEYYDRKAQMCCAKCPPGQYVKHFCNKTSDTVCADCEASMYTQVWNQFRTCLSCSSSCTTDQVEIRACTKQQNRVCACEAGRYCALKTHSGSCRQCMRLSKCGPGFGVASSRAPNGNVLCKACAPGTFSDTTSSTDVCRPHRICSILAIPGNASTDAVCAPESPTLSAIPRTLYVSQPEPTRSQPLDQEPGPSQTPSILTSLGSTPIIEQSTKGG", "assay": "ELISA, receptor coated at 1 µg/mL", "procedure": "as §1, §2", "values": [
      {"binder": "B1", "binding result": "no binding (tested: titrated from 5 µg/mL)"},
      {"binder": "B2", "binding result": "no binding (tested: titrated from 5 µg/mL)"},
      {"binder": "B3", "binding result": "no binding (tested: titrated from 5 µg/mL)"},
      {"binder": "B4", "binding result": "no binding (tested: titrated from 5 µg/mL)"},
      {"binder": "B5", "binding result": "no binding (tested: titrated from 5 µg/mL)"},
      {"binder": "B6", "binding result": "no binding (tested: titrated from 5 µg/mL)"},
      {"binder": "B7", "binding result": "no binding (tested: titrated from 5 µg/mL)"},
      {"binder": "B8", "binding result": "no binding (tested: titrated from 5 µg/mL)"},
      {"binder": "B9", "binding result": "no binding (tested: titrated from 5 µg/mL)"},
      {"binder": "B10", "binding result": "no binding (tested: titrated from 5 µg/mL)"},
      {"binder": "B11", "binding result": "no binding (tested: titrated from 5 µg/mL)"},
      {"binder": "B12", "binding result": "no binding (tested: titrated from 5 µg/mL)"}
    ]},
    {"biological_target": "T3, rat TNFR2 (R&D systems, 8348-R2-050) (rat, UniProt Q80WY6 23-258)", "T3 construct": "Bought protein", "T3 sequence (looked up)": "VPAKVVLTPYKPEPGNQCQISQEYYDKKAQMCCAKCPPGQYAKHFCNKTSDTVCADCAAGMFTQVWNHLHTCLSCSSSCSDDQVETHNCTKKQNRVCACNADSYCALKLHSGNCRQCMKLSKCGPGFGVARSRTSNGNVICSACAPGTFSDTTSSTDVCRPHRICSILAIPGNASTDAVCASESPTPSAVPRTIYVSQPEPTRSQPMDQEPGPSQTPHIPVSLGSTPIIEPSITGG", "assay": "ELISA, receptor coated at 1 µg/ml", "procedure": "Plates were incubated at 4° C. overnight. Antibodies was titrated from 100 μg/ml in a 5-fold dilution series, and distributed 100 μL, per well and incubated at 37° C. for 1 hour. Human IgG1 isotype control (BioxCell, BE0297) was used as negative control. TNFR2 Polyclonal Antibody (Invitrogen, PAS-80159) and HRP conjugated Goat anti-Rabbit IgG Fc Secondary Antibody (Invitrogen, A16116) were used as positive control for rat TNFR2 detection.", "values": [
      {"binder": "B1", "binding result": "no binding (tested: titrated from 100 µg/ml)"},
      {"binder": "B2", "binding result": "no binding (tested: titrated from 100 µg/ml)"},
      {"binder": "B3", "binding result": "no binding (tested: titrated from 100 µg/ml)"},
      {"binder": "B4", "binding result": "no binding (tested: titrated from 100 µg/ml)"},
      {"binder": "B5", "binding result": "no binding (tested: titrated from 100 µg/ml)"},
      {"binder": "B6", "binding result": "no binding (tested: titrated from 100 µg/ml)"},
      {"binder": "B7", "binding result": "no binding (tested: titrated from 100 µg/ml)"},
      {"binder": "B8", "binding result": "no binding (tested: titrated from 100 µg/ml)"},
      {"binder": "B9", "binding result": "no binding (tested: titrated from 100 µg/ml)"},
      {"binder": "B10", "binding result": "no binding (tested: titrated from 100 µg/ml)"},
      {"binder": "B11", "binding result": "no binding (tested: titrated from 100 µg/ml)"},
      {"binder": "B12", "binding result": "no binding (tested: titrated from 100 µg/ml)"}
    ]}
  ]
}
